Test results: ChEMBL document CHEMBL4043061, “Potent, Selective, Allosteric Inhibition of Human Plasmin by Sulfated Non-Saccharide Glycosaminoglycan Mimetics” (J Med Chem, 2017)

Legend:
[1] = substrate: O=c1c(O)c(-c2ccc(O)c(O)c2)oc2cc(O)cc(OCc3ccc(COc4cc(O)cc5oc(-c6ccc(O)c(O)c6)c(O)c(=O)c45)cc3)c12; conditions: Homo sapiens; 100 uM
[2] = substrate: O=c1c(OS(=O)(=O)O)c(-c2ccc(OS(=O)(=O)O)c(OS(=O)(=O)O)c2)oc2cc(OS(=O)(=O)O)cc(OCc3ccc(COc4cc(OS(=O)(=O)O)cc5oc(-c6ccc(OS(=O)(=O)O)c(OS(=O)(=O)O)c6)c(OS(=O)(=O)O)c(=O)c45)cc3)c12; conditions: Homo sapiens; 200 uM
[3] = substrate: O=c1c(O)c(-c2ccc(O)c(O)c2)oc2cc(O)cc(OCc3ccc(COc4cc(O)cc5oc(-c6ccc(O)c(O)c6)c(O)c(=O)c45)cc3)c12; conditions: Homo sapiens; 240 uM
Description: Competitive allosteric inhibition of human plasmin assessed as Vmax for substrate hydrolysis at 240 uM using chromogenic substrate spectrozyme PL by Michaelis-Menten plot analysis

[4] = substrate: O=c1c(OS(=O)(=O)O)c(-c2ccc(OS(=O)(=O)O)c(OS(=O)(=O)O)c2)oc2cc(OS(=O)(=O)O)cc(OCc3ccc(COc4cc(OS(=O)(=O)O)cc5oc(-c6ccc(OS(=O)(=O)O)c(OS(=O)(=O)O)c6)c(OS(=O)(=O)O)c(=O)c45)cc3)c12; conditions: Homo sapiens; 200 uM; remark: listed apart in the source
[5] = substrate: O=c1c(OS(=O)(=O)O)c(-c2ccc(OS(=O)(=O)O)c(OS(=O)(=O)O)c2)oc2cc(OS(=O)(=O)O)cc(OCc3ccc(COc4cc(OS(=O)(=O)O)cc5oc(-c6ccc(OS(=O)(=O)O)c(OS(=O)(=O)O)c6)c(OS(=O)(=O)O)c(=O)c45)cc3)c12; conditions: Homo sapiens; 40 uM
[6] = substrate: O=c1c(O)c(-c2ccc(O)c(O)c2)oc2cc(O)cc(OCc3ccc(COc4cc(O)cc5oc(-c6ccc(O)c(O)c6)c(O)c(=O)c45)cc3)c12; conditions: Homo sapiens; 400 uM
[7] = substrate: O=c1c(OS(=O)(=O)O)c(-c2ccc(OS(=O)(=O)O)c(OS(=O)(=O)O)c2)oc2cc(OS(=O)(=O)O)cc(OCc3ccc(COc4cc(OS(=O)(=O)O)cc5oc(-c6ccc(OS(=O)(=O)O)c(OS(=O)(=O)O)c6)c(OS(=O)(=O)O)c(=O)c45)cc3)c12; conditions: Homo sapiens; 1.6 uM
Description: Uncompetitive allosteric inhibition of human plasmin assessed as Vmax for substrate hydrolysis at 1.6 uM using chromogenic substrate spectrozyme PL by Michaelis-Menten plot analysis

[8] = substrate: O=c1c(OS(=O)(=O)O)c(-c2ccc(OS(=O)(=O)O)c(OS(=O)(=O)O)c2)oc2cc(OS(=O)(=O)O)cc(OCc3ccc(COc4cc(OS(=O)(=O)O)cc5oc(-c6ccc(OS(=O)(=O)O)c(OS(=O)(=O)O)c6)c(OS(=O)(=O)O)c(=O)c45)cc3)c12; conditions: Homo sapiens; 8 uM
Description: Uncompetitive allosteric inhibition of human plasmin assessed as Vmax for substrate hydrolysis at 8 uM using chromogenic substrate spectrozyme PL by Michaelis-Menten plot analysis

[9] = substrate: O=c1c(OS(=O)(=O)O)c(-c2ccc(OS(=O)(=O)O)c(OS(=O)(=O)O)c2)oc2cc(OS(=O)(=O)O)cc(OCc3ccc(COc4cc(OS(=O)(=O)O)cc5oc(-c6ccc(OS(=O)(=O)O)c(OS(=O)(=O)O)c6)c(OS(=O)(=O)O)c(=O)c45)cc3)c12; conditions: Homo sapiens; 100 uM
[10] = substrate: O=c1c(O)c(-c2ccc(O)c(O)c2)oc2cc(O)cc(OCc3ccc(COc4cc(O)cc5oc(-c6ccc(O)c(O)c6)c(O)c(=O)c45)cc3)c12; conditions: Homo sapiens; 400 uM; remark: listed apart in the source
[11] = substrate: O=c1c(OS(=O)(=O)O)c(-c2ccc(OS(=O)(=O)O)c(OS(=O)(=O)O)c2)oc2cc(OS(=O)(=O)O)cc(OCc3ccc(COc4cc(OS(=O)(=O)O)cc5oc(-c6ccc(OS(=O)(=O)O)c(OS(=O)(=O)O)c6)c(OS(=O)(=O)O)c(=O)c45)cc3)c12; conditions: Homo sapiens; 1.6 uM; remark: listed apart in the source
Description: Uncompetitive allosteric inhibition of human plasmin assessed as substrate Km at 1.6 uM using chromogenic substrate spectrozyme PL by Michaelis-Menten plot analysis

[12] = substrate: O=c1c(OS(=O)(=O)O)c(-c2ccc(OS(=O)(=O)O)c(OS(=O)(=O)O)c2)oc2cc(OS(=O)(=O)O)cc(OCc3ccc(COc4cc(OS(=O)(=O)O)cc5oc(-c6ccc(OS(=O)(=O)O)c(OS(=O)(=O)O)c6)c(OS(=O)(=O)O)c(=O)c45)cc3)c12; conditions: Homo sapiens; 100 uM; remark: listed apart in the source
[13] = substrate: O=c1c(OS(=O)(=O)O)c(-c2ccc(OS(=O)(=O)O)c(OS(=O)(=O)O)c2)oc2cc(OS(=O)(=O)O)cc(OCc3ccc(COc4cc(OS(=O)(=O)O)cc5oc(-c6ccc(OS(=O)(=O)O)c(OS(=O)(=O)O)c6)c(OS(=O)(=O)O)c(=O)c45)cc3)c12; conditions: Homo sapiens; 8 uM; remark: listed apart in the source
Description: Uncompetitive allosteric inhibition of human plasmin assessed as substrate Km at 8 uM using chromogenic substrate spectrozyme PL by Michaelis-Menten plot analysis

[14] = substrate: O=c1c(O)c(-c2ccc(O)c(O)c2)oc2cc(O)cc(OCc3ccc(COc4cc(O)cc5oc(-c6ccc(O)c(O)c6)c(O)c(=O)c45)cc3)c12; conditions: Homo sapiens; 240 uM; remark: listed apart in the source
Description: Uncompetitive allosteric inhibition of human plasmin assessed as substrate Km at 240 uM using chromogenic substrate spectrozyme PL by Michaelis-Menten plot analysis

[15] = substrate: O=c1c(O)c(-c2ccc(O)c(O)c2)oc2cc(O)cc(OCc3ccc(COc4cc(O)cc5oc(-c6ccc(O)c(O)c6)c(O)c(=O)c45)cc3)c12; conditions: Homo sapiens; 100 uM; remark: listed apart in the source
[16] = substrate: O=c1c(OS(=O)(=O)O)c(-c2ccc(OS(=O)(=O)O)c(OS(=O)(=O)O)c2)oc2cc(OS(=O)(=O)O)cc(OCc3ccc(COc4cc(OS(=O)(=O)O)cc5oc(-c6ccc(OS(=O)(=O)O)c(OS(=O)(=O)O)c6)c(OS(=O)(=O)O)c(=O)c45)cc3)c12; conditions: Homo sapiens; 40 uM; remark: listed apart in the source

B1: Plasminogen (Homo sapiens), P00747 (protein)
chain: MEHKEVVLLLLLFLKSGQGEPLDDYVNTQGASLFSVTKKQLGAGSIEECAAKCEEDEEFTCRAFQYHSKEQQCVIMAENRKSSIIIRMRDVVLFEKKVYLSECKTGNGKNYRGTMSKTKNGITCQKWSSTSPHRPRFSPATHPSEGLEENYCRNPDNDPQGPWCYTTDPEKRYDYCDILECEEECMHCSGENYDGKISKTMSGLECQAWDSQSPHAHGYIPSKFPNKNLKKNYCRNPDRELRPWCFTTDPNKRWELCDIPRCTTPPPSSGPTYQCLKGTGENYRGNVAVTVSGHTCQHWSAQTPHTHNRTPENFPCKNLDENYCRNPDGKRAPWCHTTNSQVRWEYCKIPSCDSSPVSTEQLAPTAPPELTPVVQDCYHGDGQSYRGTSSTTTTGKKCQSWSSMTPHRHQKTPENYPNAGLTMNYCRNPDADKGPWCFTTDPSVRWEYCNLKKCSGTEASVVAPPPVVLLPDVETPSEEDCMFGNGKGYRGKRATTVTGTPCQDWAAQEPHRHSIFTPETNPRAGLEKNYCRNPDGDVGGPWCYTTNPRKLYDYCDVPQCAAPSFDCGKPQVEPKKCPGRVVGGCVAHPHSWPWQVSLRTRFGMHFCGGTLISPEWVLTAAHCLEKSPRPSSYKVILGAHQEVNLEPHVQEIEVSRLFLEPTRKDIALLKLSSPAVITDKVIPACLPSPNYVVADRTECFITGWGETQGTFGAGLLKEAQLPVIENKVCNRYEFLNGRVQSTELCAGHLAGGTDSCQGDSGGPLVCFEKDKYILQGVTSWGLGCARPNKPGVYVRVSRFVTWIEGVMRNN
Km [1]: 357 µM
Vmax [2]: 10.4 mAU/min
Vmax [3]: 51.7 mAU/min
Km [4]: 4 µM
Vmax [5]: 22.1 mAU/min
Km [6]: 1120 µM
Vmax [7]: 36.3 mAU/min
Vmax [8]: 29 mAU/min
Km [9]: 8 µM
Vmax [10]: 51.3 mAU/min
Km [11]: 50 µM
Vmax [12]: 15.1 mAU/min
Km [13]: 20 µM
Km [14]: 807 µM
Vmax [15]: 51 mAU/min
Km [16]: 20 µM
